Reference: paper doi:10.64898/2025.12.16.694761

Target: Nitrous oxide reductase NosZ (clade I) of Trinickia sp. Z7 (Trinickia sp. Z7)
Assay: cryo-EM structure

stoichiometry N: 2
Substance: Nitrous oxide reductase NosZ (clade I) of Trinickia sp. Z7 (enzyme)
